From patent US12258605B2, “Alkane oxidation by modified hydroxylases” (The California Institute of Technology, priority 2005, dated 2025)
Like-named read-outs stand apart in the source and are kept apart here.

B1: Wild-type BM-3: wild-type cytochrome P450 BM-3 from Bacillus megaterium, SEQ ID NO:1 (protein, listed as Bacillus megaterium)
chain: TIKEMPQPKTFGELKNLPLLNTDKPVQALMKIADELGEIFKFEAPGRVTRYLSSQRLIKEACDESRFDKNLSQALKFVRDFAGDGLFTSWTHEKNWKKAHNILLPSFSQQAMKGYHAMMVDIAVQLVQKWERLNADEHIEVPEDMTRLTLDTIGLCGFNYRFNSFYRDQPHPFITSMVRALDEAMNKLQRANPDDPAYDENKRQFQEDIKVMNDLVDKIIADRKASGEQSDDLLTHMLNGKDPETGEPLDDENIRYQIITFLIAGHETTSGLLSFALYFLVKNPHVLQKAAEEAARVLVDPVPSYKQVKQLKYVGMVLNEALRLWPTAPAFSLYAKEDTVLGGEYPLEKGDELMVLIPQLHRDKTIWGDDVEEFRPERFENPSAIPQHAFKPFGNGQRACIGQQFALHEATLVLGMMLKHFDFEDHTNYELDIKETLTLKPEGFVVKAKSKKIPLGGIPSPSTEQSAKKVRKKAENAHNTPLLVLYGSNMGTAEGTARDLADIAMSKGFAPQVATLDSHAGNLPREGAVLIVTASYNGHPPDNAKQFVDWLDQASADEVKGVRYSVFGCGDKNWATTYQKVPAFIDETLAAKGAENIADRGEADASDDFEGTYEEWREHMWSDVAAYFNLDIENSEDNKSTLSLQFVDSAADMPLAKMHGAFSTNVVASKELQQPGSARSTRHLEIELPKEASYQEGDHLGVIPRNYEGIVNRVTARFGLDASQQIRLEAEEEKLAHLPLAKTVSVEELLQYVELQDPVTRTQLRAMAAKTVCPPHKVELEALLEKQAYKEQVLAKRLTMLELLEKYPACEMKFSEFIALLPSIRPRYYSISSSPRVDEKQASITVSVVSGEAWSGYGEYKGIASNYLAELQEGDTITCFISTPQSEFTLPKDPETPLIMVGPGTGVAPFRGFVQARKQLKEQGQSLGEAHLYFGCRSPHEDYLYQEELENAQSEGIITLHTAFSRMPNQPKTYVQHVMEQDGKKLIELLDQGAHFYICGDGSQMAPAVEATLMKSYADVHQVSEADARLWLQQLEEKGRYAKDVWAG
B2: 35-E11: P450 BM-3 variant, SEQ ID NO:7: 53-5H substitutions plus E464G and I710T (protein)
chain: TIKEMPQPKTFGELKNLPLLNTDKPVQALMKIADELGEIFKFEAPGCVTRYLSSQRLIKEACDESRFDKNLSQALKFFRDFSGDGLFTSWTHEINWKKAHNILLPSFSQQAMKGYHAMMVDIAVQLVQKWERLNADEHIEVSEDMTRLTLDTIGLCGFNYRFNSFYRDQPHPFIISMVRALDEVMNKLQRANPDDPAYDENKRQCQEDIKVMNDLVDKIIADRKARGEQSDDLLTQMLNGKDPETGEPLDDGNISYQIITFLIAGHETTSGLLSFALYFLVKNPHVLQKVVEEAARVLVDPVPSYKQVKQLKYVGMVLNEALRLWPTFPAFSLYAKEDTVLGGEYPLEKGDEVMVLIPQLHRDKTIWGDDVEEFRPERFENPSAIPQHAFKPFGNGQRACIGQQFALHEATLVLGMMLKHFDFEDHTNYELDIKETLTLKPEGFVVKAKSKKIPLGGIPSPSTGQSAKKVRKKAENAHNTPLLVLYGSNMGTAEGTARDLADIAMSKGFAPQVATLDSHAGNLPREGAVLIVTASYNGHPPDNAKQFVDWLDQASADEVKGVRYSVFGCGDKNWATTYQKVPAFIDETLAAKGAENIADRGEADASDDFEGTYEEWREHMWSDVAAYFNLDIENSEDNKSTLSLQFVDSAADMPLAKMHGAFSTNVVASKELQQPGSARSTRHLEIELPKEASYQEGDHLGVIPRNYEGTVNRVTARFGLDASQQIRLEAEEEKLAHLPLAKTVSVEELLQYVELQDPVTRTQLRAMAAKTVCPPHKVELEALLEKQAYKEQVLAKRLTMLELLEKYPACEMKFSEFIALLPSIRPRYYSISSSPRVDEKQASITVSVVSGEAWSGYGEYKGIASNYLAELQEGDTITCFISTPQSEFTLPKDPETPLIMVGPGTGVAPFRGFVQARKQLKEQGQSLGEAHLYFGCRSPHEDYLYQEELENAQSEGIITLHTAFSRMPNQPKTYVQHVMEQDGKKLIELLDQGAHFYICGDGSQMAPAVEATLMKSYADVHQVSEADARLWLQQLEEKGRYAKDVWAG
modifications: mutant P450 35-E11 protein sequence

Experiments:
Assay type in all cases: biochemical
[1] = Kinetic constants for n-alkanes: heptane; conditions: N.m = not measurable
Description: Rate measurements. Initial rates of product formation were determined at 25° C. in 100 mM KPi pH 8.0 buffer using purified protein (100 nM) and a substrate concentration of 1.6 mM. In a 5 mL-vial, 20 μL of alkane solution (in ethanol) were dissolved in 400 μL KPi buffer, to which 500 μL enzyme solution at 100-200 nM was added. Reaction was initiated by adding 100 μL of 5 mM NADPH solution, followed by stirring at 300 rpm for 1 minute, and quenched by adding 200 μL chloroform and stirring at 800 rpm for 10 sec. Solutions were transferred to an Eppendorf tube, to which internal standard (10 μL 25 mM 1-bromohexane in ethanol) was added. Tubes were vortexed for 10 sec and centrifuged for 30 sec at 10,000 g. Organic phase was removed and analyzed by GC. For propane, reactions were carried out in a 5 mL-scale using 100-400 nM purified enzyme, propane-saturated buffer (propane concentration≈1.6 mM) and a final NADPH concentration of 500 μM. Reactions were stopped by addition of 200 μL H2SO4 conc. and analyzed by derivatization to alkyl nitrites followed by GC-ECD analysis as described below.
(§1) Products from alkane reactions were identified and quantified by gas chromatography using authentic standards and calibration curves with internal standards. For the reactions with alkanes from pentane to decane, GC analyses were carried out using a Shimadzu GC-17A gas chromatograph, Agilent HP5 column (30 m×0.32 mm×0.1 μm film), 1 μL injection, FID detector, and the following separation program: 250° C. inlet, 250° C. detector, 50° C. oven for 3 min, 5° C./min gradient to 100° C., 25° C./min gradient to 230° C., and 230° C. for 3 min. For butane and propane (TTN) reactions, GC analyses were carried out using a Hewlett-Packard 5890 Series II Plus gas chromatograph, Supelco SPB-1 column (60 m×0.52 mm×0.5 μm film), 0.5 μL injection, FID detector, and the following separation program: 250° C. inlet, 275° C. detector, 80° C. oven for 2 min, 10° C./min gradient to 110° C., 25° C./min gradient to 275° C., and 275° C. for 2.5 min. For ethane and propane (rate) reactions, analysis of reaction mixtures was carried out by derivatization to alkyl nitrites followed by GC-ECD analysis. For laurate, reaction product analysis was carried out by derivatization with N-methyl-N-trimethylsilylheptafluorobutyramide followed by extraction with hexane. Organic solutions were analyzed by FID-GC.
To further investigate the evolution of substrate specificity, kinetic constants for the C5 to C8 alkanes were determined from Michaelis-Menten plots (Table 19). The preference of 35E11 and its evolutionary predecessors for medium-chain alkanes is indicated by their high C8/C5 specificities ((kcat/Km)8/(kcat/Km)5˜100), where Km appears to be the major contributing factor. C8/C5 specificity decreases to ˜5 in the immediate precursors of P450PMO and then switches altogether to the smaller alkane, becoming 0.4 in P450PMO. In P450PMO, catalytic efficiency is highest on propane and decreases along the alkane series, driven by decreasing kcat.

[2] = Reactions on alkanes, total turnovers (Table 18): ethane; conditions: ethane (2 C atoms); for % rel. act.: TTN normalized to the highest value of the variant's series; for TTN: total turnovers, standardized reaction conditions
Description: (§2) Reactions on alkanes. Reactions with alkanes from pentane to decane were carried out at 3 mL-scale using 100 mM KPi pH 8.0 buffer containing 2% ethanol (to allow alkane solubilization) and purified protein. 2.5 mL KPi buffer were added with 60 μL of 90 mM alkane solution in ethanol (final conc.=1.8 mM), 150 μL enzyme solution at 1 μM (final conc.=50 nM), and 300 μL NADPH regeneration solution (100 units/mL isocitrate dehydrogenase, 70 mg/mL isocitrate, 1.5 mg/ml NADP^+). Vials were sealed and stirred for 24 hours at 4° C. 1 mL-aliquot of the reaction was removed, added with 10 μl internal standard (25 mM 1-bromohexane in ethanol), and extracted with 200 μl chloroform (30 sec vortexing, 1 min centrifugation at 10000 g). The organic phase was removed and analyzed by gas chromatography. Reactions with ethane, propane, and butane were carried out as described for longer alkanes with the only difference that alkane-saturated KPi buffer was used. Propane reactions with variants from HL5 and L9 libraries were performed on 1 mL-scale reaction using 20 nM enzyme to reduce oxygen limitation. Propane and butane reactions were analyzed by direct injection of reaction solution on the GC using 1-pentanol as internal standard. Ethane reaction products were functionalized (see below) and analyzed by GC using 1-butanol as internal standard. All measurements were performed in triplicate.
as §1
(§3) TTNs for each variant-substrate pair were determined using standardized reaction conditions (identical enzyme and substrate concentration, incubation time, cofactor regeneration system) (Table 18). TTN values were used to assess performance because TTN is a cumulative measure of both catalytic and coupling efficiency and because mutants were selected based on improvement in this property. To facilitate comparison among the variants, TTNs were normalized to the highest value in the series (MTN=Maximal Turnover Number) and plotted for the increasing-sized substrates (FIG. 38). A gradual shift of the enzyme's substrate preference during laboratory evolution is evident from these profiles. The marginal activity of wild-type BM3 on these substrates (MTN=150) is restricted to the long-chain alkanes, where it is a promiscuous function of BM3's high C12-C20 fatty acid hydroxylase activity. In the first evolutionary intermediates, substrate preference centers on medium-chain alkanes […], reflecting their selection for activity on octane. In 35E11, selected for activity on propane, preference still centers on C6-C8 alkanes but now extends towards the shorter ones, including propane. Propane activity becomes prevalent with the transition from variant ETS8 to 19A12. […]

[3] = Reactions on alkanes, total turnovers (Table 18): octane; conditions: octane (8 C atoms); for % rel. act.: TTN normalized to the highest value of the variant's series; for TTN: total turnovers, standardized reaction conditions
Description: as §2, §1, §3

[4] = Reactions on alkanes, total turnovers (Table 18): heptane; conditions: heptane (7 C atoms); for % rel. act.: TTN normalized to the highest value of the variant's series; for TTN: total turnovers, standardized reaction conditions
Description: as §2, §1, §3

[5] = Reactions on alkanes, total turnovers (Table 18): butane; conditions: butane (4 C atoms); for TTN: total turnovers, standardized reaction conditions
Description: as §2, §1, §3

[6] = Reactions on alkanes, total turnovers (Table 18): hexane; conditions: hexane (6 C atoms); for % rel. act.: TTN normalized to the highest value of the variant's series; for TTN: total turnovers, standardized reaction conditions
Description: as §2, §1, §3

Row | Molecule | Km [1] | kcat [1] | % rel. act. [2] | TTN [2] | % rel. act. [3] | TTN [3] | % rel. act. [4] | TTN [4] | % rel. act. ([5]; TTN normalized to the highest value of the variant's series) | TTN [5] | % rel. act. [6] | TTN [6] | Km ([1]; read-out: Km)
1 | B1 | n.m. | n.m. | 0.0% | 0 | 18.8% | 30 ± 42 | 12.5% | 20 ± 5 | 0.0% | 0 | 6.3% | 10 ± 4 | 
2 | B2 |  | 10.6 ± 1.38 s⁻¹ | 3.5% | 220 ± 30 | 93.7% | 5950 ± 323 | 81.4% | 5170 ± 148 |  | 5150 ± 104 | 100.0% | 6350 ± 384 | 200 ± 46 µM
